Source: PMC8622166

Assays:
RAC2 (human), P15153 = assay: stopped-flow fluorimetry; kon from kobs against increasing GDI concentrations mixed with 0.2 µM mdGDP-bound RHO GTPase; koff by displacement with excess unlabeled GDP-bound RHO protein; Kd = koff/kon; 25 °C, 30 mM Tris/HCl pH 7.5, 10 mM K2HPO4/KH2PO4 pH 7.5, 5 mM MgCl2, 3 mM DTT; settings: remark: other sources report otherwise
RAC3 (human), P60763 = assay: as above; settings: remark: other sources report otherwise

B1: GDI2, P52566 1-201 (natural protein)
chain: MTEKAPEPHVEEDDDDELDSKLNYKPPPQKSLKELQEMDKDDESLIKYKKTLLGDGPVVTDPKAPNVVVTRLTLVCESAPGPITMDLTGDLEALKKETIVLKEGSEYRVKIHFKVNRDIVSGLKYVQHTYRTGVKVDKATFMVGSYGPRPEEYEFLTPVEEAPKGMLARGTYHNKSFFTDDDKQDHLSWEWNLSIKKEWTE
B1 was tested, and the Kd (RAC2 (human), P15153) was 18.8 µM, the fold faster kon than GDI1 (RAC3 (human), P60763) was greater than 10 fold and the fold slower koff than GDI1 (RAC3 (human), P60763) was less than 4 fold.
